Measured values as given in the DeepSol protein solubility set.

Test: soluble on expression in E. coli; label from the status in PepcDB or PDB records

Sequence | soluble on expression in E. coli
MIQFNQVSKSYEDGTKAVDSLHLEIKKGEFFVLIGPSGCGKTTTMKMINRLIETTEGSILIDGKDIQQYNINELRWDIGYVLQQIALFPHMTIAENIAVVPEMRKWSKEKIKARVDELLQMVGLDPDVYRNRMPDELSGGQKQRIGVVRALAANPKIVLMDEPFSALDPLSREQLQKDIVQLQKKIQKTIVFVTHDMQEALSLGDRICIMKEGKVVQLDTPEGIIHNPKNEFVEEFIGNRGRPWYEGKSIEDVLPLDESIRIEGEALSLHSSLQEALVRLRADEVVPVEEKGRYVGALTSRHIVNYIVEQMKERG | not soluble
MSLIRKFSSKDLDAVEEIEREAFKTPYPTSLILGFWSMYPNCFYVAEIDGRVVGYILGSMDWGNGHIISLAVKKECRGLGIGTALLKTLENYYFNIANCNYIVLEVRVSNVLARRFYYRMGYRDRKLLPKYYEDGEDAILMIKKKPNAKGPLIITLWEGHHHHHH | soluble
MGSDKIHHHHHHMYTQDNVISNNKRLSSFQLSKMHTFEVAARHCSFSLAAEELSMTPSAISHRINALESELGILLFKRSHRKIELTKEGERIYIAVKSSFSSLNQEILEVKSNEISGELTVYSRPSFAQCWLVPRIAGFQKQYPAISLNILTGNENINFHGHGIDVAIYFDEKQPSKLYCQDIMTETIVPVCSPEYAEEFDLIGKINNLSQCTLLHDNQAWGYDSNTDEWALWANNFNINCLASSASIRFDRSDLAVIAAMNNAGVAMGRESFISNQIKRGELIKPFIDKKILCPQRYYVATLPNNKNTKIELFIEWLKNEVQNEGGESIV | not soluble
MRNIAVILAGGSGQRLGENIPKQFLKIAGKKVIEHTITVFQNHSLIDEIVVVVHPDYIRDVEDISLRNSFNKLKKILLGGKERYHSSLAAINAYDEEVNLLFHDSVRPLVNERIINDCIRALLTYNAVDVAIPTTDTIIQVDDNNEIVKIPSRILLRNGQTPQAFKRSVIKAAYEKALLDPLFKTTDDCGVVLKYLPDESIYVVNGEQFNMKLTYKEDIFLLDKLFQLRSIRNQPTLLEKSEMEELQGKVVVVFGGTYGIGQDICEICREYKTSLYVYSRSTGVDVSNSQSVRRVLSEIFDKEGRIDWIVNTAGILDKQPLANMSYEAVHQSIDVNYLGNIIVAKESFFYLKESKGSLLFFTSSSYTRGRALYSLYSSSKAAIVNFVQALSEEWFEYGIRVNCINPERTKTPMRIQNFGNEPEDTLLEPKVVAIVSVNTLLSEMTGEVVDVKRLEHHHHHH | not soluble
MAKTLYEKLFDAHVVYEAQNETPLLYIDRHLVHEVTSPQAFDGLRAHGRQVRQPGKTFATMDHNVSTQTKDINASGEMARIQMQELIKNCKEFGVELYDLNHPYQGIVHVMGPEQGVTLPGMTIVCGDS | not soluble
MGSDKIHHHHHHMYTMFYTSKTALSANQSKLDIISNNIANSDSTGYKKINMEYSDLVDEVLNRPSYPTNGNDISTGTGAKATAPMRNYEQGALAPTDSKSNLAIDGEGFFRVIRKDGTYAYTRNGGFNVDALGKIVDDNGNILDVQFDAGYNYNNTNIDSTNLTVSRNGELFVDNKKIGKINLYQPIGTQNFISEGDSLFVATDAAQIKQVEKVDIVQGYRERSNVSLQEEFVDLIATQRAFQMNSKGIKTADEMWQIANNLRAK | not soluble
SLSSLEGQENSFTINSVDMKSLPDWTVQNGKNLTLQCFADVSTTSHVKPQHQMLFYKDDVLFYNISSMKSTESYFIPEVRIYDSGTYKCTVIVNNKEKTTAEYQLLVEGVPSPRVTLDKKEAIQGGIVRVNCSVPEEKAPIHFTIEKLELNEKMVKLKREKNSRDQNFVILEFPVEEQDRVLSFRCQARIISGIHMQTSESTKSELVTVTESFSTPKFHISPTGMIMEGAQLHIKCTIQVTHLAQEFPEIIIQKDKAIVAHNRHGNKAVYSVMAMVEHSGNYTCKVESSRISKVSSIVVNITELFSKPELESSFTHLDQGERLNLSCSIPGAPPANFTIQKEDTIVSQTQDFTKIASKSDSGTYICTAGIDKVVKKSNTVQIVVCEMLS | soluble
MGSDKIHHHHHHMKVVKFGGSSLASSQQLYKVLNIIKSDYTRRFVVVSAPGKRYEEDLKMTDALIQYYQNYINGKDIVKDQTWIINRYQEIISDLSLGSTIAEEITRSIEQLASLPIENNQFLYDCFLAAGEDNNAKLVATFFNQNDIPARYVHPNEAGIIVTKEPCNARIIPGSYDKIENLCLYNEVLVIPGFFGVTEDNQICTFSRGGSDITGSLIAAGIKADLYENFTDVDGIFAAHPGVVKNPHAIPELTYKEMRELAYAGFSVLHDEALLPAYRGRIPLVIKNTNNPQQPGTKIVLKHTRSNIAVTGIASDSRFASINVSKYLMNREVGFGRKVLQILEDLNISFEHMPTGIDDLSIVLREKELTPIKEQEILNYLTRKLEVDYVDIQHNLSTIVIVGENMKSQIGVTATATQALSREKINITMISQGSSEVSIMFVINSKDEKRAIKALYETFFQK | not soluble
MTTSIQRRISIVIPCLNDAVLLEQCLSSIVAQTLQPEEVIVVDNGSTDNSVEVANRMGARVVHEPLQGITWASAAGYNSARGDLIVRFDADCVIPPDHLSQVNAIWNRTEETPGRTIVALTGTGSFDIPGRMGEWLALCYLGAYRWSTKQALGHYPIFGSNSVISRQWWEDVKDQITLSETFVHEDMYFSFFVRPHETVWFEKNLKLIMHPRALMGVRQSFIRLVRGFYTIKIAWKREPVHQRLESRRDWTLEHHHHHH | not soluble
MSLETKTPNDAKNQVQTHERMKTSSEHVTPLDFNYPIHIVQAPQNHHVVGILTPRIQVSDNLKPYIDKFQDALINQIQTIFEKRGYQVLRFQDEKALNAQDKRKIFSVLDLKGWVGILEDLKMNLKDPNNPNLDTLVDQSSGSVWFNFYEPESNRVVHDFAVEVGTFQAMTYTYKHNNSGGLNSSNSIIHEYLEKNKEDAIHKILNRMYAVVMKKAVTELTKENIDKYREAIDRMKGFKSSMPQKKEGHHHHHH | soluble
MSIAIIIGTHGAAAEQLLKTAEMILGEQSNVAYIDFVPGENAETLIEKYNDRLTGLDTSKGVLFLVDTWGGSPFNAASRIAIDKENYEVVTGVNIPMLAETFMARDDEPSFAELVAVAVETGREGVKALKAPDVKSDKPETQPAAPVPTAKAPAVALGPNDHMKIGLARIDDRLIHGQVATRWTKETNVNRIIVVSDEVAADKMRKTLLTQVAPPGVTAHVVDVEKAIRVYNNPKYANDRVMLLFTNPTDVVRLVEGGVDIKSVNIGGMAFRQGKTQVNNAVSIDEKDIEAFNKLNARGIELEVRKVSSDSRLKMMDLISKLNK | not soluble
MHHHHHHSSRENLYFQGTLPLWIGKPGDKPPPLCGAIPASGDYVARPGDKVAARVKAVDGDEQWILAEVVSYSHATNKYEVDDIDEEGKERHTLSRRRVIPLPQWKANPETDPEALFQKEQLVLALYPQTTCFYRALIHAPPQRPQDDYSVLFEDTSYADGYSPPLNVAQRYVVACKEPK | soluble
MAHHHHHHMAPPQTTLSLDANLRNTLRSLLIERLCSPTQPLPAKQLYDELTNRSRLVEEFHFSKTSRRITRQRLALQFLRRYNVLLHGLFFYSEGTRTWNTTTEFHRLAILGESVLLTEVRTRLLKLFPVMPYAAYVQSLPHMVGEEALAAAFDRYEMQNIVGAKPSNQRSGTPLTRMQKSHMLCAIVAEMYWFTARTKPTDLTHNNALFPPSDVLILHVLSTHLLENLPAELIYNVVEPIVADIKRVWVNEPMSLPSQLRLTPRTVGALSLNAVPVDLRYTAKEDAVMSLQKKHEEAHRRQHALTREPDHSCVKSFMRPSCNYRIFDGPRYQILSSDNRVAPLPLAQERSSLPASAVCTVVDDADSAARAMELAKMAEQW | not soluble
MSLSIALIAPYESLATLCRSICQELDLDVSVHTGSMEDGVRIARNLMAEGVDFFISRGLTAQLIREQCPLPVAELEVSAFDIYLCLEPLLRSGKSIGVVGHSDILRKAKGASAALGFTIDFYATAHPGGMGHIMEAARRQGIAAIAGDAVAARTAERYGMEGVLVQNGADSVTNTLQYAVATYSYLTRQATMAGEGHHHHHH | not soluble
